Data on 35 sequences can be found in the supplement of paper PMC12764529.

± gives the half width of the 95% confidence interval.

A short description of series [1]: folding stability dG unfold from trypsin proteolysis; higher = more stable. In a few lines: (§1)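 Digests were run with trypsin and chymotrypsin at 11 concentrations in threefold dilutions, plus a no-protease condition, on designed mini-proteins in a PA-tagged cDNA display construct. The mini-proteins were under 80 residues, had no cysteine, and were kept only when AlphaFold2 dimer inter-PAE was above 15. After sequencing, Bayesian fitting of the counts gave K50, from which unfolding free energy was derived against a sequence-predicted unfolded-state K50 and a shared folded-state K50, per protease or combined.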

A short description of series [2]: folding stability dG unfold (combined trypsin and chymotrypsin); higher = more stable. In a few lines: as §1
Series [3] can be described thus: folding stability dG unfold from chymotrypsin proteolysis; higher = more stable. In a few lines:
as §1

As to “SAGGSAGGSKKVEIKVKVKITNENGETLEVTATIVFDEKTGELYIYDEKTGKVYKISLDDIEPSAGGSAGGS [r12_772_TrROS_Hall]”, the “folding stability dG unfold” value in series [1] is 2.03 ± 0.082 kcal/mol; in series [2] it was 3.53 ± 0.09 kcal/mol; in series [3], 3.94 ± 0.077 kcal/mol.
The corresponding values for “SAGGSAGGSKLRLVLKFKTPEEAEEAARKLAEELKKKEGVKEVKVSVVKVNGEYYVVVEVEKESAGGSAGGS [r12_7_TrROS_Hall]” are 2.53 ± 0.27 kcal/mol, 3.72 ± 0.25 kcal/mol and 4.15 ± 0.11 kcal/mol.
With “SAGGSAGGSKMLLVKVYIEETKEEIVIEVPEGMTLEEIAERLRELGYKIKKIEVYELPPPPEESAGGSAGGS [r12_955_TrROS_Hall]”, the figures for the “folding stability dG unfold” value in series [1], in series [2] and in series [3] were 3.82 ± 0.18 kcal/mol, 4.11 ± 0.3 kcal/mol and 4.25 ± 0.078 kcal/mol, respectively.
The like results for “SAGGSAGGSKMVLKVTLENGKTIEIEAGETIEEIKAKIEEEFGKPVKIKVEKVSAEELGLKPESAGGSAGGS [r12_379_TrROS_Hall]” were, in that order, 0.304 ± 0.13 kcal/mol, 1.33 ± 0.17 kcal/mol and 1.59 ± 0.055 kcal/mol.
The corresponding values for “SAGGSAGGSKNVKTVTIPFNNMSPSKFIEQIKNHPVDAIEIEMPDPWYRRFLNWLKDEGIKVISAGGSAGGS [r12_610_TrROS]” are 1.27 ± 0.053 kcal/mol, 1.49 ± 0.12 kcal/mol and 1.49 ± 0.18 kcal/mol.
The like results for “SAGGSAGGSKPDTIKITFPDGFEIEINGPGMIMIRFPEQGYIFRIPIDPDKNEIKIEIVEPLPSAGGSAGGS [r12_539_TrROS]” were, in that order, 2.43 ± 0.11 kcal/mol, 3.05 ± 0.13 kcal/mol and 3.39 ± 0.045 kcal/mol.
As to “SAGGSAGGSKPELVIPITFPVLVKNPLDGKIYPVKVEIHIFYYPDKPIIEITLINPDGKPFPFSAGGSAGGS [r12_283_TrMRF]”, the “folding stability dG unfold” value is 2.13 ± 0.064 kcal/mol in series [1], 1.93 ± 0.066 kcal/mol in series [2] and 1.67 ± 0.038 kcal/mol in series [3].
As for “SAGGSAGGSKPGEVYEVKVKIKDKETGKYYEVKVKVYRLEDGTLLIEVDGKIFEVPVKDIEIESAGGSAGGS [r12_790_TrROS_Hall]”, the “folding stability dG unfold” value is 3.25 ± 0.2 kcal/mol in series [1], 3.99 ± 0.11 kcal/mol in series [2] and 4.2 ± 0.082 kcal/mol in series [3].
The corresponding values for “SAGGSAGGSKPIPYRVKIPSPNGKTHKFDVQIQVRPDGMIDIHVPSGKTIHIPANYPVEIEPWSAGGSAGGS [r20_227_TrROS]” are 0.132 ± 0.13 kcal/mol, 0.056 ± 0.21 kcal/mol and -0.208 ± 0.52 kcal/mol.
For “SAGGSAGGSKPTLTLEIVLPPEMTLEQLEELARALAEELGLDEVEVRVERRPDGYLRITITVKSAGGSAGGS [r20_208_TrROS_Hall]”, the “folding stability dG unfold” value in series [1] is 3.63 ± 0.18 kcal/mol; in series [2], 3.59 ± 0.12 kcal/mol; in series [3], 3.45 ± 0.091 kcal/mol.
For “SAGGSAGGSKTITLSAEELEKMSPEERKKLAELAEKLGAKIEVKDGKVTITIEGLTPEELKALSAGGSAGGS [r12_945_TrROS_Hall]”, the “folding stability dG unfold” value in series [1] was 3.84 ± 0.25 kcal/mol; in series [2], 3.06 ± 0.25 kcal/mol; in series [3], 2.33 ± 0.12 kcal/mol.
Take “SAGGSAGGSKTITVRVKITLPNGETIEVEAEITVRPDGSITITLPDGSTITLPPGAKVEIEPVSAGGSAGGS [r20_227_TrROS_Hall]”: the results for the “folding stability dG unfold” value in series [1], in series [2] and in series [3] were 2.99 ± 0.12 kcal/mol, 2.85 ± 0.26 kcal/mol and 2.51 ± 0.17 kcal/mol, respectively.
Consider “SAGGSAGGSKTIVITIEPNVKTPEQLLELLKKIRELSKPGEKIVIIASPEVLEALKKAGLIEESAGGSAGGS [r12_992_TrROS_Hall]”, for which the “folding stability dG unfold” value came out at 3.2 ± 0.16 kcal/mol in series [1], 3.49 ± 0.097 kcal/mol in series [2] and 3.7 ± 0.086 kcal/mol in series [3].
The like results for “SAGGSAGGSKTIVLPKNMSIEQAREEILAKARELLPPGEKLKVTIEVVETPEGTYLKITIEKESAGGSAGGS [r12_1051_TrROS_Hall]” were, in that order, 2.49 ± 0.06 kcal/mol, 3.22 ± 0.058 kcal/mol and 3.51 ± 0.086 kcal/mol.
The corresponding values for “SAGGSAGGSKTKTIEIEVDGKKVRITVNEDGSVTIEVYYPGKPVKTIEIPGMSIEEILKALLESAGGSAGGS [r20_8_TrROS_Hall]” are 3.08 ± 0.071 kcal/mol, 2.73 ± 0.098 kcal/mol and 2.27 ± 0.071 kcal/mol.
As for “SAGGSAGGSKTPVFYIPPSLKDPEKAIELLEEIRKKIPPGTKIAVIAPGGGIPELKKAGLITASAGGSAGGS [r12_992_TrMRF]”, the entries for the “folding stability dG unfold” value in series [1], in series [2] and in series [3] were 0.344 ± 0.048 kcal/mol, 0.472 ± 0.11 kcal/mol and 0.518 ± 0.03 kcal/mol, respectively.
The corresponding values for “SAGGSAGGSKTVEITITRKDGKKLKIEFYPDGYIKIYDSNGKLVKTIKVDPNASIEEILKALKSAGGSAGGS [r12_990_TrROS_Hall]” are 3.31 ± 0.12 kcal/mol, 3.39 ± 0.083 kcal/mol and 3.38 ± 0.038 kcal/mol.
The like results for “SAGGSAGGSKTVVITLPENEELGLEKLEELIEKVGPDAKIIISRWDPETGKVDYLVIETGEGKSAGGSAGGS [r12_913_TrMRF]” were, in that order, 1.02 ± 0.041 kcal/mol, 1.69 ± 0.14 kcal/mol and 1.92 ± 0.21 kcal/mol.
In the case of “SAGGSAGGSKVEVKEFEFKANGSKALIEKLEDGSVKIIVLGEEPKEYEISPEEPIVILPGFEVSAGGSAGGS [r12_1003_TrMRF]”, the “folding stability dG unfold” value in series [1] was -0.341 ± 0.068 kcal/mol; in series [2] it was -0.172 ± 0.09 kcal/mol; in series [3], -0.172 ± 0.1 kcal/mol.
The corresponding values for “SAGGSAGGSKVFTVEELENMTPEEIRALIKKSKKPVIIVAKSEEEKKRAAELLKELGVEVKVLSAGGSAGGS [r12_97_TrROS_Hall]” are 3.73 ± 0.12 kcal/mol, 3.7 ± 0.11 kcal/mol and 3.6 ± 0.057 kcal/mol.
The like results for “SAGGSAGGSKVKLTFTIPPGTTPEEAIAKAEELAKKLNIPIVKIDSIEYDPETGTVRIELELDSAGGSAGGS [r12_131_TrMRF]” were, in that order, 4.05 ± 0.15 kcal/mol, 4.31 ± 0.068 kcal/mol and 4.31 ± 0.049 kcal/mol.
With “SAGGSAGGSLEVKVLGIVGDKPVEVTLPAGLGELTLEEIRAAFPPGEWRLVLRDENGNETPLTSAGGSAGGS [r12_540_TrMRF]”, the “folding stability dG unfold” value in series [1] is 0.663 ± 0.089 kcal/mol; in series [2], 0.446 ± 0.16 kcal/mol; in series [3], -0.00936 ± 0.18 kcal/mol.
The like results for “SAGGSAGGSLKPFPIEDITVQPRRNPDGNRYYQVSIRIKGPGRPINIPFPMDNPKKFLEDIIKSAGGSAGGS [r20_238_TrROS]” were, in that order, 0.519 ± 0.081 kcal/mol, 0.285 ± 0.17 kcal/mol and 0.143 ± 0.12 kcal/mol.
In the case of “SAGGSAGGSLMIPIPPGKPINIKFEIKNDDGHPMRITETYPVKNGYYVIRVENPNGNEQIIPFSAGGSAGGS [r12_31_TrROS]”, the “folding stability dG unfold” value in series [1] is -0.247 ± 0.15 kcal/mol; in series [2], -0.185 ± 0.14 kcal/mol; in series [3], -0.271 ± 0.2 kcal/mol.
The like results for “SAGGSAGGSMADITITVTDPATGATRTFPHSVSLEEILAEHPGPVTVTIETPTSTTTLQVPRESAGGSAGGS [r12_1056_JUSTAS]” were, in that order, 0.884 ± 0.03 kcal/mol, 0.542 ± 0.056 kcal/mol and 0.0731 ± 0.084 kcal/mol.
In the case of “SAGGSAGGSMDLKDIKILEAYDPGGPVVVTFLNEGKPYTVTIPPENAQILLDLLKEGNIEIKPSAGGSAGGS [r12_604_TrMRF]”, the “folding stability dG unfold” value in series [1] was determined as 0.773 ± 0.032 kcal/mol; in series [2], 1.25 ± 0.054 kcal/mol; in series [3], 1.54 ± 0.047 kcal/mol.
Turning to “SAGGSAGGSMDLKNAKIISIEETENEIKITIEVDGKLYTITISKEEAEKLKKLLEDLNIEIIPSAGGSAGGS [r12_604_TrROS_Hall]”, the “folding stability dG unfold” value in series [1] was 4.14 ± 0.23 kcal/mol; in series [2] it was 4.27 ± 0.14 kcal/mol; in series [3] it was 4.3 ± 0.079 kcal/mol.
With “SAGGSAGGSMEEIIEEIKKKVPKDKYAEIEIEVPFPDGSKKKFKIKFYPETNEFEVEELEEIPSAGGSAGGS [r12_305_TrMRF]”, the “folding stability dG unfold” value in series [1] was 3.12 ± 0.26 kcal/mol; in series [2] it was 3.88 ± 0.24 kcal/mol; in series [3], 4.12 ± 0.23 kcal/mol.
In the case of “SAGGSAGGSMFEEEEIEIERPDGTTIKVKVEILPDGTRVLTITDPKEGKTTTVTLSPNEEILLSAGGSAGGS [r20_45_JUSTAS]”, the “folding stability dG unfold” value in series [1] came to 2.15 ± 0.12 kcal/mol; in series [2] it was 1.6 ± 0.12 kcal/mol; in series [3] it was 0.464 ± 0.049 kcal/mol.
Take “SAGGSAGGSMHEDEQLPYEAAEKYTILKLKEENEKLNLPPIPIKKIEIEKDPETGLVRVKVYGSAGGSAGGS [r12_583_TrMRF]”: the figures for the “folding stability dG unfold” value in series [1], in series [2] and in series [3] were -0.788 ± 0.42 kcal/mol, -0.552 ± 0.39 kcal/mol and -0.579 ± 0.6 kcal/mol, respectively.
The like results for “SAGGSAGGSMIEYPELTLEELKAKFEAEGYTVEEEPPTNVVTLTPPDGTPITVTVTPVPESLLSAGGSAGGS [r12_211_JUSTAS]” were, in that order, 1.21 ± 0.043 kcal/mol, 0.803 ± 0.057 kcal/mol and 0.352 ± 0.013 kcal/mol.
Regarding “SAGGSAGGSMIFFPNITKEEFEEIFRKKGYKVKRYPSTNVIEVTGKDGKPIKAVVIPVSPEEFSAGGSAGGS [r12_211_TrMRF]”, the “folding stability dG unfold” value was found to be 0.677 ± 0.058 kcal/mol in series [1], 0.668 ± 0.088 kcal/mol in series [2] and 0.618 ± 0.13 kcal/mol in series [3].
As to “SAGGSAGGSMIKIKVKSKEDVEALIKELEKAGFKVKKVEEVDGKVYFTLENGEKIEIEVVPPESAGGSAGGS [r20_93_TrROS_Hall]”, the “folding stability dG unfold” value in series [1] is 4.24 ± 0.48 kcal/mol; in series [2], 5.05 ± 0.34 kcal/mol; in series [3], 4.94 ± 0.12 kcal/mol.
In the case of “SAGGSAGGSMIKVKITYPNGEEKTIEIEAETEEEAEEAAKKLAEELGKDVKVEVEKVSPEELKSAGGSAGGS [r12_385_TrROS_Hall]”, the entries for the “folding stability dG unfold” value in series [1], in series [2] and in series [3] were 1.64 ± 0.075 kcal/mol, 1.45 ± 0.073 kcal/mol and 1.22 ± 0.034 kcal/mol, respectively.
The corresponding values for “SAGGSAGGSMKITKIEVEENEDGTLTVRLELEFVDPETKETYRVELEITVSKEELEKLLEALKSAGGSAGGS [r12_691_TrROS_Hall]” are 3.03 ± 0.12 kcal/mol, 3.9 ± 0.23 kcal/mol and 4.09 ± 0.21 kcal/mol.
